Measurements reported in patent publication US11306156.

Key:
[1] = biological target: tissue factor (TF) antigen (UniProt P13726); assay: SPR (ProteOn XPR36), Fab captured on anti-penta-His, TF injected, 1:1 fit; batch C (+)
[2] = biological target: tissue factor (TF) antigen (UniProt P13726); assay: SPR, against wild-type D3H44 Fab; batch C (+)
[3] = biological target: tissue factor (TF) antigen (UniProt P13726); assay: SPR, same assay; reference wild-type D3H44 Fab
[4] = biological target: tissue factor (TF) antigen (UniProt P13726); assay: SPR (ProteOn XPR36), Fab captured on anti-penta His surface, TF injected as analyte, 1:1 model
[5] = biological target: tissue factor (TF) antigen (UniProt P13726); assay: SPR, Fab captured on anti-penta-His, TF as analyte, 1:1 fit
[6] = biological target: tissue factor (TF) antigen (UniProt P13726); assay: vs wild-type D3H44 Fab (KD 0.157 nM); SPR, Fab captured on anti-penta-His, TF as analyte

tissue factor (TF) antigen, sequence (P13726 33-251 limits assumed): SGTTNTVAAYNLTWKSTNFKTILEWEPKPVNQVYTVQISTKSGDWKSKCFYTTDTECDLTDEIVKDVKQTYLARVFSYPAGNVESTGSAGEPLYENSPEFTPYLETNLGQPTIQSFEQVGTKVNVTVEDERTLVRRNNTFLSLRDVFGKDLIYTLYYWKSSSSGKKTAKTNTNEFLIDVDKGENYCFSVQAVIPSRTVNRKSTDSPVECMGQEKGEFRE

Substance	change in median KD of H1L1 Fab heterodimer compared to wild type (-(log(KD design)-log(KD wt))) [3]	Kd [4] [nM]	Kd [5] [nM]	change in median KD compared to wild type, -(log(KD design)-log(KD wt)) [6]	other results
H1L1 Fab heterodimer of LCCA Set # 9843 and 9844 (D3H44 Fab; H1 S186K, L1 Q124E_S131T_T178F_T180E)					Kd [1]: 0.17 nM; Change in median values of KD of h1l1 Fab heterodimer compared to wild type (-(log(KD design)-log(KD wt))) [2]: -0.03
H1L1 Fab heterodimer of LCCA Set # 9845 and 9846 (D3H44 Fab; H1 S186K, L1 Q124E_S131T_T178Y_T180E)					Kd [1]: 0.13 nM; Change in median values of KD of h1l1 Fab heterodimer compared to wild type (-(log(KD design)-log(KD wt))) [2]: 0.09
H1L1 Fab heterodimer of LCCA Set # 9906 (D3H44 Fab; H1 S188G, L1 S176L)					Kd [1]: 0.11 nM; Change in median values of KD of h1l1 Fab heterodimer compared to wild type (-(log(KD design)-log(KD wt))) [2]: 0.14
H1L1 Fab heterodimer of LCCA Set # 9914 (D3H44 Fab; H1 S188L_V190F, L1 WT)					Kd [1]: 0.15 nM; Change in median values of KD of h1l1 Fab heterodimer compared to wild type (-(log(KD design)-log(KD wt))) [2]: 0.01
H1L1 Fab heterodimer of LCCA set 9214 (D3H44 Fab, H1 L124E_L143D_K145T, L1 Q124K_V133G_S176R_T178K)	-0.08	0.19			
H1L1 Fab heterodimer of LCCA set 9225 (D3H44 Fab, H1 L124E_L143D_K145T, L1 Q124K_V133G_S176R_T178R)	-0.02	0.16			
H1L1 Fab heterodimer of LCCA set 9260 (D3H44 Fab, H1 L124E_L143E_K145M, L1 Q124K_V133G_S176R_T178K)	-0.19	0.24			
H1L1 Fab heterodimer of LCCA set 9269 (D3H44 Fab, H1 L124E_L143E_K145M, L1 Q124K_V133G_S176R_T178R)	-0.29	0.31			
H1L1 Fab heterodimer of LCCA set 9351 (D3H44 Fab, H1 L124R_D146N_Q179K, L1 Q124E_V133G_S176D_T178E_T180E)	-0.1	0.2			
H1L1 Fab heterodimer of LCCA set 9354 (D3H44 Fab, H1 L124R_D146N_Q179K, L1 V133G_Q160E_S176D_T180E)	-0.04	0.17			
H1L1 Fab heterodimer of LCCA set 9358 (D3H44 Fab, H1 L124R_D146N_Q179K, L1 V133G_S176D_T178E)	-0.07	0.18			
H1L1 Fab heterodimer of LCCA set 9359 (D3H44 Fab, H1 L124R_D146N_Q179K, L1 V133G_S176D_T178E_T180E)	-0.01	0.16			
H1L1 Fab heterodimer of LCCA sets 9546 and 9547 (D3H44 Fab, H1 L124R_S186R, L1 V133G_S176D_T180E)			0.24	-0.18	

Now from value to substance, other results behind:

change in median KD of H1L1 Fab heterodimer compared to wild type (-(log(KD design)-log(KD wt))) [3]	Kd [4] [nM]	Kd [5] [nM]	change in median KD compared to wild type, -(log(KD design)-log(KD wt)) [6]	Substance	other results
-0.21	0.26			H1L1 Fab heterodimer of LCCA set 9516 (D3H44 Fab, H1 L124R_S186R, L1 Q124E_V133G_S176D_T178D_T180E)	
		0.35	-0.35	H1L1 Fab heterodimer of LCCA set 9746 (D3H44 Fab, H1 L45P_K145T_Q179E, L1 P44F_S131K)	
		0.29	-0.27	H1L1 Fab heterodimer of LCCA set 10552 (D3H44 Fab, H1 L45P_L143E_K145T_H172R, L1 P44F_Q124R_Q160K_T178R)	
		0.27	-0.23	H1L1 Fab heterodimer of LCCA sets 9667, 9671, 9675, 9679 and 9682 (D3H44 Fab, H1 L143E_K145T_Q179E, L1 Q124R_T178R)	
		0.2	-0.09	H1L1 Fab heterodimer of LCCA sets 9735 and 9737 (D3H44 Fab, H1 L143R, L1 Q124E_V133E)	
		0.28	-0.26	H1L1 Fab heterodimer of LCCA sets 9755 and 9756 (D3H44 Fab, H1 Q179K, L1 Q124E_L135W_Q160E_T180E)	
		0.29	-0.27	H1L1 Fab heterodimer of LCCA sets 9757 and 9758 (D3H44 Fab, H1 Q179K, L1 Q124E_Q160E_T178E)	
